Results on 2 molecules are retold here after US20090181009A1 (ARCA BIOPHARMA, published 2009).

Assay [1] concerns the target T1, human NTB-A (full-length, on cells) (human, UniProt Q96DU3 22-332).
T1 sequence: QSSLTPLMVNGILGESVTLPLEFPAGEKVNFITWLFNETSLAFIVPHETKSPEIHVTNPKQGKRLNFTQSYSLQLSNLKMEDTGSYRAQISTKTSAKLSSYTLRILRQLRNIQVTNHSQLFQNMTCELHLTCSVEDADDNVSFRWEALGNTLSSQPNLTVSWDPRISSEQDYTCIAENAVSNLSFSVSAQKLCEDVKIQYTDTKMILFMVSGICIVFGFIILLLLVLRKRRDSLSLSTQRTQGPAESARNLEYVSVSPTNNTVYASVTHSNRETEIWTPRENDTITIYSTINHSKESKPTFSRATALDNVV
The assay can be described thus: cell-based or functional assay.

For assay [2], the target named is T2, NTB-A extracellular domain fused to a C-terminal tag of V5-His (NTB-A-ECD-V5His) (human).
T2 construct: Produced in HEK-293 cells; also called recombinant NTB-A protein; NTB-A V5-6His
T2 chain: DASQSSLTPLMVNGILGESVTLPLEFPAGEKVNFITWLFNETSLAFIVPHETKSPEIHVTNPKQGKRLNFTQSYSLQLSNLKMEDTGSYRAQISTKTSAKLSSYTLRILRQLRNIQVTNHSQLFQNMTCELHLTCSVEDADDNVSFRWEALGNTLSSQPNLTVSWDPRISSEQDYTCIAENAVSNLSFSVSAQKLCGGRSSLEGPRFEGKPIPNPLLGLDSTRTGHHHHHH
Kind of assay: SPR (BIAcore), mAb captured by anti-mouse mAb, antigen in solution, 25° C.; KD = kd/ka. As to the method: (§1) Kinetic rate constants (kₐ and kd) were determined using surface plasmon resonance and affinities (KD) were then calculated from the rate constants (kd/kₐ). Surface plasmon resonance was carried out on a BIAcore system (Biacore International AB, Uppsala, Sweden). […] Antigen was diluted to a starting concentration of 46 nM and tested for binding to the mAb samples using a 3-fold dilution series. Each of 5 concentrations was tested twice except the highest concentration which was tested 5 times in total, two times with a short dissociation of 300 seconds followed by three times with a dissociation of 60 minutes. The data sets from the long dissociation experiments were globally fit with the shorter […] experiments to determine binding constants for the interactions. The analysis was carried out in HBS, pH 7.4 buffer at 25° C. (Canziani et al, Anal. Biochem. 352:301-307 […]).

Assay [3] has as its target T3, NTB-A Δ5 deletion construct (human, UniProt Q96DU3 22-64).
T3 construct: Expressed in 293 cells and read by flow cytometry
T3 chain: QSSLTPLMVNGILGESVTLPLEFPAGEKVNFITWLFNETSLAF
The assay can be described thus: flow cytometry on 293 cells expressing the deletion construct.

For assay [4], the target named is T4, NTB-A Δ4 deletion construct (human, UniProt Q96DU3 22-94).
T4 construct: Expressed in 293 cells and read by flow cytometry
T4 sequence: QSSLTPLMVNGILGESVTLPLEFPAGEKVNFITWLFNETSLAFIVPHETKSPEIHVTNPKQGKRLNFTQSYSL
Described as above.

Assay [5] concerns the target T2, NTB-A extracellular domain fused to a …. The assay can be described thus: SPR (BIAcore), mAb captured by anti-mouse mAb, antigen in solution, 25° C. The protocol: as §1

B1: anti-NTB-A monoclonal antibody 480.12 (antibody, mouse IgG2b, V domains shown)
VH: QIQLVQSGPELKKPGETVKISCKASGYTFTNFGMNWVKQAPGKGLKWMGWINTYSGEATYADDFKGRFAFSLETSASTAFLQISNLKNEDTATYFCARRGGTAEFDYWGQGTPLTVSSA
VL: EIVLTQSPTTVAASPGEKITITCSASSSISSNFLHWYQQKPGFSPKLLIYRTSKLASGVPGRFSGSGSGTSYSLTIGTMEAEDVATYYCQQGIYMPLTVGAGTKLELKRA
notes: Murine IgG2b from a hybridoma; also called ATCC Deposit No. PTA-7832
With B1, the “EC50 of CDC on cells from CLL patients” value in assay [1] lay within 9 to 15 ng/mL. Also, binding in assay [2] was put at a Kd of 1.25 nM. Further, the binding result in assay [3] is on record as “no binding”. For the same molecule, in assay [4], the binding result is “no binding”. In assay [5], this molecule came in with an off-rate constant (koff) of 0.0005 s⁻¹ and a kon of 404000 M⁻¹ s⁻¹.

B2: anti-NTB-A monoclonal antibody 994.1 (antibody, mouse IgG2b, V domains shown)
VH: QIQLVQSGPDLKNPGKTVKISCKASGYTFTNFGMNWVKQSPERGLKWMGWINTYNGKPTYADDFKGQFAFSLETSATTAYLQINNLKNEDTAAYFCAKRGGTVDFGYWGQGTTLTVSS
VL: EVVLTQSPTTMAASPGEKITVTCSASSPISSNFLHWYQQKPGFSPKLFIYRTSILASGVPARFSGSGSGTSFSLTIGAMEAEDVAAYYCQQGIYMPLTFGAGTKLELKR
notes: Murine IgG2b from a hybridoma; also called ATCC Deposit No. PTA-7831
For B2, the “EC50 of complement-dependent cytotoxicity (CDC) on CA46 cells” value in assay [1] is roughly 10 ng/mL. Besides, the binding result in assay [3] and in assay [4] was “no binding” throughout.
